Laboratory results published in patent US20190270826A1 (Janssen / Centocor, published 2019).
Residue numbers refer to the chain shown, from its start.

T1: cyno IL1RAP ECD displayed on HEK-293F cells (pDisplay) (cynomolgus monkey, UniProt P59822 21-367 (rhesus entry))
T1 sequence: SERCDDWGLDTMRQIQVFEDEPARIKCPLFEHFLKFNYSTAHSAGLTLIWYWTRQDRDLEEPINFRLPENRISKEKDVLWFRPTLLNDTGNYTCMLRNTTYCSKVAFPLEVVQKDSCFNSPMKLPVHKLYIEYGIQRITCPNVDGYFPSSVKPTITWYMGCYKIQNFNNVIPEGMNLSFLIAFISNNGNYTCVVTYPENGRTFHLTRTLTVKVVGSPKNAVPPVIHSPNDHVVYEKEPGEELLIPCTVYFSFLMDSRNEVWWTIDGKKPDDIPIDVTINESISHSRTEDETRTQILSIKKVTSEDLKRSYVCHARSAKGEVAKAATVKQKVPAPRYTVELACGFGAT

T2: recombinant cyno IL1RAP ECD (cynomolgus monkey, UniProt P59822 21-367 (rhesus entry))
T2 construct: also called rcynoIL1RAP
T2 sequence: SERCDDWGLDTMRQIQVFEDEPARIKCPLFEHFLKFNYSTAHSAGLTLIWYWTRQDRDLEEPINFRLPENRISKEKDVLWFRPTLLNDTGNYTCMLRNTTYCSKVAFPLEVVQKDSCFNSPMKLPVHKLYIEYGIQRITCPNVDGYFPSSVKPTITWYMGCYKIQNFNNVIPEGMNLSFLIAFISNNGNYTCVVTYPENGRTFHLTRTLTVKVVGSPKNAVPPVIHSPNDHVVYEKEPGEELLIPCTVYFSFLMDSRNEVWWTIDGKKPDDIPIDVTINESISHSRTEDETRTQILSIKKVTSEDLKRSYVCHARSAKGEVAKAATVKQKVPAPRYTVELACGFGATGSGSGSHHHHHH

T3: recombinant human IL1RAP ECD (human, UniProt Q9NPH3 21-367)
T3 construct: His-tagged; also called hIL1RAP-ECD; rhuIL1RAP
T3 sequence: T2 sequence with F183L, P273T, T326K

T4: human IL1RAP on cells (endogenous) (human, UniProt Q9NPH3 21-570)
T4 sequence (looked up): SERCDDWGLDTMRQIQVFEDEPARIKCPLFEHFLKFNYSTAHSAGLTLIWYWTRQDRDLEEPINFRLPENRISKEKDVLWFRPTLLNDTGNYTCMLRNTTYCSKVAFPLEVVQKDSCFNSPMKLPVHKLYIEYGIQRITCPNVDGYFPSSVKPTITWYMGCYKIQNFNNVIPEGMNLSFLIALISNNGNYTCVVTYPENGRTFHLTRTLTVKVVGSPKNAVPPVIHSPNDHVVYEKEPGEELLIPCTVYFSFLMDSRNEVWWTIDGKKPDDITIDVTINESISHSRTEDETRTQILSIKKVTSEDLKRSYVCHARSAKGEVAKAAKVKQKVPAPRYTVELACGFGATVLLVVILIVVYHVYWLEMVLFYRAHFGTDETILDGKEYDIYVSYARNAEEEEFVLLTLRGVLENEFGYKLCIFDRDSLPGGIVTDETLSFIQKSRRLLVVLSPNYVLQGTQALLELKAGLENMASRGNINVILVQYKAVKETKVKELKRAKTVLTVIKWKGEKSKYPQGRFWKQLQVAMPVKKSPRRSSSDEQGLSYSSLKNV

B1: IAPB23 (antibody, human IgG4 S228P, kappa, F234A L235A, V domains shown)
VH: EVQLLESGGGLVQPGGSLRLSCAASGFTFSNYWMNWVRQAPGKGLEWVSAIRYDGGSKYYADSVKGRFTISRDNSKNTLYLQMNSLRAEDTAVYYCAKDAYPPYSFDYWGQGTLVTVSS
VL: EIVLTQSPATLSLSPGERATLSCRASQSVSSYLAWYQQKPGQAPRLLIYDASNRATGIPARFSGSGSGTDFTLTISSLEPEDFAVYYCQQRSNWPLTFGQGTKVEIKR
notes: IgG4-PAA; whole chains
B2: IAPB55 (antibody, human IgG4 S228P, kappa, F234A L235A, V domains shown)
VH: QLQLQESGPGLVKPSETLSLTCTVSGVSISSSTYYWGWLRQPPGMGLEWTGSIYFTGNTYYNPSLKSRVTISVDTSRNQFSLKLSSVTAADTAVYYCGSLFGDYGYFDYWGQGTLVTVSS
VL: EIVMTQSPATLSVSPGERATLSCRASQFISSNLAWYQQKPGQAPRLLIYGASTRATGIPARFSGSGSGTDFTLTISSLQSEDFAVYYCQQYNNWPFTFGPGTKVDIKR
notes: IgG4-PAA; whole chains
B3: IAPB61 (antibody, human IgG4 S228P, kappa, F234A L235A, V domains shown)
VH: B2 VH
VL: B2 VL with S14P, F96S
notes: IgG4-PAA; whole chains
B4: IAPB03 (antibody, human IgG4 S228P, kappa, F234A L235A, V domains shown)
VH: QVQLVQSGAEVKKPGSSVKVSCKASGGTFSSYAISWVRQAPGQGLEWMGGISAIFGTANYAQKFQGRVTITADESTSTAYMELSSLRSEDTAVYYCARGNSFHALWDYAFDYWGQGTLVTVSS
VL: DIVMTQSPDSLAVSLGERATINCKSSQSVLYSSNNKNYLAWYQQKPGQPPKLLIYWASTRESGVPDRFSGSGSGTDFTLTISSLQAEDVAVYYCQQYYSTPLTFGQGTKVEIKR
notes: IgG4-PAA; the entries called VH/VL are whole chains; also called IAPB3
B5: IC3B3 (bispecific antibody, human IgG4 S228P, kappa, lambda, F234A L235A)
heavy 1: EVQLVESGGGLVQPGGSLKLSCAASGFTFNTYAMNWVRQASGKGLEWVGRIRSKYNAYATYYAASVKGRFTISRDDSKNTAYLQMNSLKTEDTAVYYCTRHGNFGNSYVSWFAYWGQGTLVTVSSASTKGPSVFPLAPCSRSTSESTAALGCLVKDYFPEPVTVSWNSGALTSGVHTFPAVLQSSGLYSLSSVVTVPSSSLGTKTYTCNVDHKPSNTKVDKRVESKYGPPCPPCPAPEAAGGPSVFLFPPKPKDTLMISRTPEVTCVVVDVSQEDPEVQFNWYVDGVEVHNAKTKPREEQFNSTYRVVSVLTVLHQDWLNGKEYKCKVSNKGLPSSIEKTISKAKGQPREPQVYTLPPSQEEMTKNQVSLTCLVKGFYPSDIAVEWESNGQPENNYKTTPPVLDSDGSFLLYSKLTVDKSRWQEGNVFSCSVMHEALHNHYTQKSLSLSLGK
light 1: QAVVTQEPSLTVSPGGTVTLTCRSSTGAVTTSNYANWVQQKPGQAPRGLIGGTNKRAPGTPARFSGSLLGGKAALTLSGAQPEDEAEYYCALWYSNLWVFGGGTKLTVLGQPKAAPSVTLFPPSSEELQANKATLVCLISDFYPGAVTVAWKADSSPVKAGVETTTPSKQSNNKYAASSYLSLTPEQWKSHRSYSCQVTHEGSTVEKTVAPTECS
heavy 2: not shown
light 2: DIQLTQSPSFLSASVGDRVTITCRASQGISSYLAWYQQKPGKAPKLLIYAASTLQSGVPSRFSGSGSGTEFTLTISSLQPEDFATYYCQQVNSYPLTFGGGTKVEIKRTVAAPSVFIFPPSDEQLKSGTASVVCLLNNFYPREAKVQWKVDNALQSGNSQESVTEQDSKDSTYSLSSTLTLSKADYEKHKVYACEVTHQGLSSPVTKSFNRGEC
notes: IgG4-PAA, Fab arm exchange; also called IAPB57 x CD3B220
B6: IC3B15 (bispecific antibody, human IgG4 S228P, kappa, lambda, F234A L235A)
heavy 1: B5 heavy 1
light 1: B5 light 1
heavy 2: not shown
light 2: not shown
notes: IgG4-PAA, Fab arm exchange; also called IAPB65 x CD3B220
B7: IC3B6 (bispecific antibody, human IgG4 S228P, kappa, lambda, F234A L235A)
heavy 1: B5 heavy 1
light 1: B5 light 1
heavy 2: not shown
light 2: not shown
notes: IgG4-PAA, Fab arm exchange; also called IAPB3 x CD3B220

Columns and labels:
[1] = molecular target: T1, cyno IL1RAP ECD displayed on HEK-293F …; assay: HEK-293F cells (MSD)
[2] = molecular target: T2, recombinant cyno IL1RAP ECD; assay: recombinant protein
[3] = molecular target: T3, recombinant human IL1RAP ECD; assay: SPR, summary
[4] = molecular target: T3, recombinant human IL1RAP ECD; assay: SPR (ProteOn)
Experimental: The rates of IL1RAP ECD association and dissociation were measured for each variant. The biosensor surface was prepared by covalently coupling Goat anti-Human IgG (Fc) to the surface of a GLC chip (BioRad) using the manufacturer instructions for amine-coupling chemistry. […] The RU immobilized also included a goat anti-mouse Fc antibody that was added to capture other antibodies not included in the ones reported here. Since the mixture was 1:1 about 50% of these RU immobilized are expected to be goat anti-human Fc. The kinetic experiments were performed at 25° C. in running buffer (PBS pH 7.4, 0.005% P20, 3 mM EDTA). […] (1:3) serial dilutions of human IL1RAP ECD, starting at 400 nM were prepared in running buffer. […] The reference spots (Goat anti-Human IgG (Fc)-modified surface) containing no candidate captured were used as a reference surface. Capture of mAb was followed by a 3 minute injection (association phase) of antigen at 40 μL/min, followed by 10 minutes of buffer flow (dissociation phase). […] Data was processed on the instrument software. Double reference subtraction of the data was performed by subtracting the curves generated by buffer injection from the reference-subtracted curves for analyte injections. Kinetic analysis of the data was performed using 1:1 Langmuir binding model with group fit.

[5] = molecular target: T4, human IL1RAP on cells (endogenous); assay: cell-based or functional assay
[6] = molecular target: T2, recombinant cyno IL1RAP ECD; assay: SPR
[7] = molecular target: T3, recombinant human IL1RAP ECD; assay: SPR
[8] = molecular target: T3, recombinant human IL1RAP ECD; assay: SPR; remark: listed apart in the source
[9] = molecular target: T3, recombinant human IL1RAP ECD; assay: SPR; human KD over cyno KD
[10] = molecular target: T2, recombinant cyno IL1RAP ECD; assay: SPR; remark: listed apart in the source
[11] = molecular target: T2, recombinant cyno IL1RAP ECD; assay: SPR, summary
[12] = molecular target: T3, recombinant human IL1RAP ECD; assay: SPR, summary; remark: listed apart in the source

Row | Binder | binding result [1] | binding result [2] | Kd [3] | Kd [4] | koff [4] | kon [4] | EC50, T-cell mediated cytotoxicity [5] | Kd [6] | Kd [7] | Kd [8] | koff [8] | kon [8] | Hu/Cyno KD Ratio [9] | Kd [10] | koff [10] | kon [10] | Kd [11] | Kd [12]
1 | B1 | binds | binds | 4.7 nM | 4.7 nM | 0.00149 s⁻¹ | 317000 M⁻¹ s⁻¹ | – | – | – | – | – | – | – | – | – | – | – | –
2 | B2 | binds | binds | 1.64 nM | – | – | – | – | – | – | – | – | – | – | – | – | – | – | –
3 | B3 | binds | binds | 17.5 nM | – | – | – | – | – | – | – | – | – | – | – | – | – | – | –
4 | B4 | binds | binds | 2.64 nM | 2.64 nM | 0.000357 s⁻¹ | 135000 M⁻¹ s⁻¹ | – | – | – | – | – | – | – | – | – | – | – | –
5 | B5 | – | – | – | – | – | – | 0.131 nM | 0.0861 nM | 0.034 nM | 0.034 nM | 2.98e-05 s⁻¹ | 875000 M⁻¹ s⁻¹ | 0.4 | 0.0861 nM | 8.2e-05 s⁻¹ | 952000 M⁻¹ s⁻¹ | 0.086 nM | 0.034 nM
6 | B6 | – | – | – | – | – | – | 0.94 nM | 9.08 nM | 11.5 nM | 11.5 nM | 0.00395 s⁻¹ | 343000 M⁻¹ s⁻¹ | 1.3 | 9.08 nM | 0.00344 s⁻¹ | 379000 M⁻¹ s⁻¹ | 9.08 nM | 11.5 nM
7 | B7 | – | – | – | – | – | – | 0.49 nM | 2.99 nM | 2.29 nM | 2.29 nM | 0.000381 s⁻¹ | 167000 M⁻¹ s⁻¹ | 0.8 | 2.99 nM | 0.00054 s⁻¹ | 180000 M⁻¹ s⁻¹ | 2.99 nM | 2.29 nM
